Results reported in paper PMC4333395.
Changes are numbered by the printed parent chain.

Tests used:
[1] = system: T1, hADAR2-D (human ADAR2 deaminase domain) (human), P78563-2; assay: EMSA; conditions: EMSA: 20 mM Tris-HCl pH 7-7.1, 6% glycerol, 0.5 mM DTT, 60 mM KCl, 20 mM NaCl, 0.1 mM 2-mercaptoethanol, 1.5 mM EDTA, 0.003% NP-40, 160 U/ml RNasin, 100 ug/ml …
T1 sequence: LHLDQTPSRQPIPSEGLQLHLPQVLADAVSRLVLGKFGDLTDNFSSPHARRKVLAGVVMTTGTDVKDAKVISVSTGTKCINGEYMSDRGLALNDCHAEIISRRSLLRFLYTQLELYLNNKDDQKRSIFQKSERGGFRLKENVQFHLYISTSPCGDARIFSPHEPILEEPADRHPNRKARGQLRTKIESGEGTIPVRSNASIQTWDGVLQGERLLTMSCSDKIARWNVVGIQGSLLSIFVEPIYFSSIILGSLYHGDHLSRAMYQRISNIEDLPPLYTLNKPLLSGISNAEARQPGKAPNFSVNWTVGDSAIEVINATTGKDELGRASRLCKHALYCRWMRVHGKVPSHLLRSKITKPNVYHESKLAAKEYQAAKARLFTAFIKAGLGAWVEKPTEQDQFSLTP

[2] = system: T2, hADAR2-D E488Q E488Q (human), P78563-2; assay: EMSA; conditions: N12 of top = 8-azanebularine; EMSA: 20 mM Tris-HCl pH 7-7.1, 6% glycerol, 0.5 mM DTT, 60 mM KCl, 20 mM NaCl, 0.1 mM 2-mercaptoethanol, 1.5 mM EDTA, 0.003% NP-40, 160 U/ml RNasin, 100 ug/ml …
T2 sequence: T1 sequence with E190Q

For “CAUUANGGUGGGUGGAAUAGUAUAACA / UGUUAUAGUAUCCCACCUACCCUGAUG [(e) GluR B R/G 8-azaN]”, the Kd ([1]; N6 of top = 8-azanebularine) was over 3200 nM.

“CCCCACAUUNGACGUUCAGUUAGUACCACCAAUGUGGGG [(c) 8-azaN]” was tested, and the Kd ([1]; N10 = 8-azanebularine) was 310 nM.

“UUCCCCACAUUNGACGUUCAGU / ACTGAACCACCAAUGUGGGGAA [(g) 8-azaN]” showed a Kd ([1]; N12 of top = 8-azanebularine, bottom nt 1-7 2'-deoxy) of 99 nM.

“UUCCCCACAUUNGACGUUCAGU / ACUGAACCACCAATGUGGGGAA [(h) 8-azaN]” showed a Kd ([1]; N12 of top = 8-azanebularine, bottom nt 8-15 2'-deoxy) of 342 nM.

Sequence “UUCCCCACAUUNGACGUUCAGU / ACUGAACCACCAAUGTGGGGAA [(f) 8-azaN]” has a Kd ([1]; N12 of top = 8-azanebularine, bottom nt 16-22 2'-deoxy) of 114 nM.

“UUCCCCACAUUNGACGUUCAGU / ACUGAACCACCAAUGUGGGGAA [(d) 8-azaN]” gave a Kd ([1]; N12 of top = 8-azanebularine) of 30 nM.

With “UUCCCCACAUUNGACGUUCAGU / ACUGAACGACCAAUGUGGGGAA [(i) 8-azaN]” the Kd [2] was under 5 nM and the Kd ([1]; N12 of top = 8-azanebularine) was 15 nM.

For “UUCCCCACAUUNGACGUUCAGU / ACUGAACGUCCAAUGUGGGGAA [(j) 8-azaN]”, the Kd ([1]; N12 of top = 8-azanebularine) was 10 nM.

Work on “UUCCCCACAUUNGACGUUCAGUUAGUACCACCAAUGUGGGGAA [(b) 8-azaN]” yielded a Kd ([1]; N12 = 8-azanebularine) of 27 nM.
